Data taken from article doi:10.1101/054106.

Biological target: potato ADP-glucose pyrophosphorylase (AGPase) small subunit, wild type (potato (S. tuberosum)) (UniProt P23509)
Test: native gel or EMSA

potato ADP-glucose pyrophosphorylase (AGPase) small subunit, wild type (potato (S. tuberosum)), sequence (P23509 73-521): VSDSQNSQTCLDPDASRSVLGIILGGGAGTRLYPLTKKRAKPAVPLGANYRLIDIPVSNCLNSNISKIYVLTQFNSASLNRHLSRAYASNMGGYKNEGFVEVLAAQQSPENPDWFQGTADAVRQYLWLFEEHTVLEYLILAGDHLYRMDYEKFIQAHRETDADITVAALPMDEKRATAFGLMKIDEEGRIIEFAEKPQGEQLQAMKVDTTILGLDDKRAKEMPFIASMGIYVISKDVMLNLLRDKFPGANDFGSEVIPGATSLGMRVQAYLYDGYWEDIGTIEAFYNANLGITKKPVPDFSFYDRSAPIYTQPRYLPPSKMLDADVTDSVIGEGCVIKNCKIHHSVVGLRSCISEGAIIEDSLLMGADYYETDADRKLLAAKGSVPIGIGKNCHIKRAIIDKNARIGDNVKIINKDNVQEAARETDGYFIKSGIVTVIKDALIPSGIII

| percent of total band intensity in the dimer band | percent in the form of heterotetramers | Substance |
| --- | --- | --- |
| 40% | – | potato ADP-glucose pyrophosphorylase (AGPase) large subunit, E370R mutant (enzyme) |
| – | 90% | potato ADP-glucose pyrophosphorylase (AGPase) large subunit, E370G mutant (enzyme) |
